Source: US20230174651A1

Experiments:
[1] = molecular target: CD79b CAR with CD8α hinge as the spacer; assay: flow cytometry, NK cell line-2 transduced with CD79b CAR construct 137LH at MOI 5, AF647-CD79b at 1 µg/ml; same gate on untransduced (UTD) cells 0.32
Target sequence (P01732 138-182): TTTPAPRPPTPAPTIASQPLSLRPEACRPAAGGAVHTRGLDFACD

[2] = molecular target: CD79b CAR with CD8α hinge as the spacer; assay: flow cytometry, NK cell line-2 transduced with CD79b CAR construct 441HL at MOI 20, AF647-CD79b at 1 µg/ml; same gate on untransduced (UTD) cells 0.32
[3] = molecular target: CD79b CAR with CD8α hinge as the spacer; assay: flow cytometry, NK cell line-1 transduced with CD79b CAR construct 441HL at MOI 5, AF647-CD79b at 1 µg/ml; same gate on untransduced (UTD) cells 0.23
[4] = molecular target: CD79b CAR with CD8α hinge as the spacer; assay: flow cytometry, NK cell line-1 transduced with CD79b CAR construct 137LH at MOI 20, AF647-CD79b at 1 µg/ml; same gate on untransduced (UTD) cells 0.23
[5] = molecular target: CD79b CAR with CD8α hinge as the spacer; assay: flow cytometry, NK cell line-2 transduced with CD79b CAR construct 441HL at MOI 5, AF647-CD79b at 1 µg/ml; same gate on untransduced (UTD) cells 0.32
[6] = molecular target: CD79b CAR with CD8α hinge as the spacer; assay: flow cytometry, NK cell line-1 transduced with CD79b CAR construct 441HL at MOI 20, AF647-CD79b at 1 µg/ml; same gate on untransduced (UTD) cells 0.23
[7] = molecular target: CD79b CAR with CD8α hinge as the spacer; assay: flow cytometry, NK cell line-2 transduced with CD79b CAR construct 137LH at MOI 20, AF647-CD79b at 1 µg/ml; same gate on untransduced (UTD) cells 0.32
[8] = molecular target: CD79b CAR with CD8α hinge as the spacer; assay: flow cytometry, NK cell line-1 transduced with CD79b CAR construct 137LH at MOI 5, AF647-CD79b at 1 µg/ml; same gate on untransduced (UTD) cells 0.23

AF647-CD79b, sequence (P40259 29-159 limits assumed): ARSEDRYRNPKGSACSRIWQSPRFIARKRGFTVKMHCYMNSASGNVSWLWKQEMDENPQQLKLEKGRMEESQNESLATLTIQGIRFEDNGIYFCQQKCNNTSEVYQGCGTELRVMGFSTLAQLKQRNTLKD

% positive (CD79b CAR+ NK cells) [1]: 47.4%
% positive (CD79b CAR+ NK cells) [2]: 85.2%
% positive (CD79b CAR+ NK cells) [3]: 69.9%
% positive (CD79b CAR+ NK cells) [4]: 74.5%
% positive (CD79b CAR+ NK cells) [5]: 72.2%
% positive (CD79b CAR+ NK cells) [6]: 80.8%
% positive (CD79b CAR+ NK cells) [7]: 71.2%
% positive (CD79b CAR+ NK cells) [8]: 67.1%
Substance: AF647-CD79b (from UniProt P40259 29-159)
